{"source": "patent US20210130827A1", "biological_target": "catalytically deactivated LbCpf1 (dLbCpf1)(dLbCas12a) with eight copies of GCN4 epitopes fused to the C-terminus (Lachnospiraceae bacterium)", "assay": "cell-based or functional assay", "note": "Values joined by “and” are separate entries in the source; they are usually repeats but may differ in a detail not shown here. Equal entries are not always repeated."}
{"substance": "antibody targeted toward the GCN4 epitope fused to hAPOBEC3A (scFv)", "values": [{"measurement": "C to T editing efficiency compared to unfused dCpf1 (NGS, HEK293T cells)", "result": "< 5", "unit": "fold"}, {"measurement": "C to T editing rate (NGS, HEK293T cells, not sorted for transfected cells) (% of treated cell population)", "result": "7 and 19"}]}
